Results reported in PMC7374754, “Selection of mutant µplasmin for amyloid-β cleavage in vivo” (Scientific Reports, 2020).

Target: human µPlm P642A (human)
Experiment: cell-based or functional assay

IC50 of α2-AP inhibition of amidolytic activity, fold relative to the wild-type: 2 fold of wild type
B1: human alpha-2 antiplasmin (α2-AP), mature (natural protein, UniProt P08697-1 40-491, looked up)
chain: NQEQVSPLTLLKLGNQEPGGQTALKSPPGVCSRDPTPEQTHRLARAMMAFTADLFSLVAQTSTCPNLILSPLSVALALSHLALGAQNHTLQRLQQVLHAGSGPCLPHLLSRLCQDLGPGAFRLAARMYLQKGFPIKEDFLEQSEQLFGAKPVSLTGKQEDDLANINQWVKEATEGKIQEFLSGLPEDTVLLLLNAIHFQGFWRNKFDPSLTQRDSFHLDEQFTVPVEMMQARTYPLRWFLLEQPEIQVAHFPFKNNMSFVVLVPTHFEWNVSQVLANLSWDTLHPPLVWERPTKVRLPKLYLKHQMDLVATLSQLGLQELFQAPDLRGISEQSLVVSGVQHQSTLELSEVGVEAAAATSIAMSRMSLSSFSVNRPFLFFIFEDTTGLPLFVGSVRNPNPSAPRELKEQQDSPGNKDFLQSLKGFPRGDKLFGPDLKLVPPMEEDYPQFGSPK
